Patent US20230183322A1 (PEKING UNIVERSITY, published 2023)

What was measured:
[1] = biological target: S protein of the novel coronavirus SARS-CoV-2 (SARS-CoV-2, UniProt P0DTC2 14-1273); experiment: cell-based or functional assay
[2] = biological target: biotin-labeled SARS-COV-2 RBD domain (SARS-CoV-2, UniProt P0DTC2 319-541); experiment: SPR, Biacore T200, biotin-RBD on SA chip, antibody as analyte

B1: ABU-354 (antibody, V domains shown)
VH: EVQLVESGGGLIQPGGSLRLSCAASGLIVSSNYMSWVRQAPGKGLEWVSVLYAGGSTDYAGSVKGRFTISRDNSKNTLYLQMNSLRAEDTAVYYCARDAAVYGIDVWGQGTTVTVSS
VL: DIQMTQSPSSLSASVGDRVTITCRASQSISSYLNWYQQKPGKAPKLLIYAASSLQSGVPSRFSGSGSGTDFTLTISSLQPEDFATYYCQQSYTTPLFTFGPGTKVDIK
- IC50 for neutralizing SARS-CoV-2 pseudovirus (Huh-7 cells, luciferase) [1]: < 0.1 µg/mL
- Kd [2]: < 1 nM

B2: ABU-355 (antibody, V domains shown)
VH: EVQLVESGGGLVQPGGSLRLSCAASGITVRSNYMSWVRQAPGKGLEWVSVIYSGGSTFYADSVKGRFTISRDNSKNTLYLQMNSLRAEDTAVYYCARDLISRGMDVWGQGTTVTVSS
VL: DIQLTQSPSSLSASVGDRVTITCRASQGISSYLAWYQQKPGKAPKLLIYAASTLQSGVPSRFSGSGSGTDFTLTISSLQPEDFATYYCQQLNGYPHSAFGPGTKVDIK
- IC50 for neutralizing SARS-CoV-2 pseudovirus (Huh-7 cells, luciferase) [1]: < 0.1 µg/mL
- Kd [2]: < 1 nM

B3: ABU-371 (antibody, V domains shown)
VH: EVQLVESGGGLVQPGGSLRLSCAASGIIVSSNYMSWVRQAPGKGLEWVSVIYSGGSTYYADSVKGRFTISRDNSKNTLYLQMNSLRAEDTAVYYCARDLDYYGMDVWGQGTTVTVSS
VL: DIQLTQSPSFLSASVGDRVTITCRASQGISSYLAWYQQKPGKAPKLLIYAASTLQSGVPSRFSGSGSGTEFTLTISSLQPEDFATYYCQQLNSYPPFTFGPGTKVDIK
- IC50 for neutralizing SARS-CoV-2 pseudovirus (Huh-7 cells, luciferase) [1]: < 1 µg/mL
- Kd [2]: < 20 nM

B4: ABU-356 (antibody, V domains shown)
VH: EVQLVESGGGLIQPGGSLRLSCAASGFTVSSNYMNWVRQAPGKGLEWVSVIYSGGSTFYADSVKGRFTISRDNSKNTLYLQMNSLRAEDTAVYYCARDRVVYGMDVWGQGTTVTVSS
VL: DIQMTQSPSSLSASVGDRVTITCQASQDIINYLNWYQQKPGKAPKLLIYGASNLETGVPSRFSGGGSGTDFTFTISSLQPEDIATYYCHQYDNLPPTFGQGTRLEIK
- IC50 for neutralizing SARS-CoV-2 pseudovirus (Huh-7 cells, luciferase) [1]: < 0.1 µg/mL
- Kd [2]: < 10 nM

B5: ABU-358 (antibody, V domains shown)
VH: EVQLVESGGGLIQPGGSLRLSCAASGLTVSSNYMNWVRQAPGKGLEWVSVIYSGGSTYYADSVKGRFTISRDNSKNMVYLQMNSLRAEDTAVYYCARDLVVYGMDVWGQGTTVIVSS
VL: DIQLTQSPSSLSASVGDRVTITCRASQGISSYLAWYQQKPGKAPKLLIYAASTLQSGVPSRFSGSGSGTDFTLTISSLQPEDVATYYCQQLNSNPPITFGPGTKVDIK
- IC50 for neutralizing SARS-CoV-2 pseudovirus (Huh-7 cells, luciferase) [1]: < 0.1 µg/mL
- Kd [2]: < 10 nM

B6: ABU-359 (antibody, V domains shown)
VH: EVQLVESGGGLVQPGGSLRLSCAASGFIVSSNYMTWVRQAPGKGLEWVSVIYSGGSTFYADSVKGRFTISRHNSKNTLFLQMNSLRAEDTAVYYCARDAQNYGMDVWGQGTTVTVSS
VL: DIQMTQSPSSLSASVGDRVTITCRASQSISSYLNWYQQKPGKAPKLLIFAASSLQTGAPSRFSGSGSGTDFTLTISSLQPEDFATYYCQQSYSTPPYTFGQGTKLEIK
- IC50 for neutralizing SARS-CoV-2 pseudovirus (Huh-7 cells, luciferase) [1]: < 0.1 µg/mL
- Kd [2]: < 10 nM

B7: ABU-360 (antibody, V domains shown)
VH: EVQLVESGGGLVQPGGSLRLSCAASEFIVSRNYMSWVRQAPGKGLEWVSVIYSGGSTFYADSVKGRFTISRDNSKNTLYLQMNSLRAEDTGVYYCARDRGLVSDYWGQGTLVTVSS
VL: DIQMTQSPSSLSASVGDRVTITCQASQDINKYLNWYQQKPGKAPKLLIFDASHLETGVPSRFSASGSGTDFTFTISSLQPEDIATYYCHQYDNLPRTFGQGTRLEIK
- IC50 for neutralizing SARS-CoV-2 pseudovirus (Huh-7 cells, luciferase) [1]: < 0.1 µg/mL
- Kd [2]: < 1 nM

B8: ABU-361 (antibody, V domains shown)
VH: EVQLVESGGGLIQPGGSLRLSCAASGLTVSSNYMSWVRQAPGKGLEWVSVIYSGGSTYYADSVKGRFTISRDNSTNTLYLQMNSLRAEDTAVYYCARDLDYYGMDVWGQGTTVTVSS
VL: DIQLTQSPSSLSASVGDRVTITCRASQGISSYLAWYQQKPGKAPNLLIYAASTLQSGVPSRFSGSGSGTDFTLTISSLQPEDFATYYCQHLNSYPPITFGQGTRLEIK
- IC50 for neutralizing SARS-CoV-2 pseudovirus (Huh-7 cells, luciferase) [1]: < 0.5 µg/mL
- Kd [2]: < 20 nM

B9: ABU-362 (antibody, V domains shown)
VH: EVQLVESGGGLVQPGGSLRLSCAASGFTVSRNYMSWVRQAPGKGLEWVSVIYSGGTTHYADSVKGRFTISRHNSKNTLYLQMNSLRAEDTAVYYCARDLVVYGMDVWGQGTTVTVSS
VL: DIQLTQSPSFLSASVGDRVTITCRASQGISSYLAWYQQKPGKAPKLLIYAASTLQSGVPSSFSGSGSGTEFTLTISSLQPEDFATYYCQQLNSYPLTFGGGTKVEIK
- IC50 for neutralizing SARS-CoV-2 pseudovirus (Huh-7 cells, luciferase) [1]: < 0.5 µg/mL
- Kd [2]: < 20 nM

B10: ABU-365 (antibody, V domains shown)
VH: EVQLVESGGGLIQPGGSLRLSCAASGVTVSSNYMSWVRQAPGKGLEWVSLIYSGGSTYYADSVKGRFTISRDNSKNTLYLQMNSLRAEDTAVYYCARPIVGARSGMDVWGQGTTVTVSS
VL: DIQMTQSPSSLSASVGDRVTITCQASQDINNYLNWYQQKPGKAPKLLIYDASNLETGVPSRFSGSGSGTDFTFIISSLQPEDIATYYCQQHDNLPVTFGGGTKVEIK
- IC50 for neutralizing SARS-CoV-2 pseudovirus (Huh-7 cells, luciferase) [1]: < 0.1 µg/mL
- Kd [2]: < 10 nM

B11: ABU-367 (antibody, V domains shown)
VH: EVQLVESGGGLIQPGGSLRLSCAASGIIVSSNYMTWVRQAPGKGLEWVSVIYSGGSTFYADSVKGRFTISRDNSKNTLYLQMSSLRAEDTAVYYCARDLGPYGMDVWGQGTTVTVSS
VL: DIQLTQSPSFLSASVGDRVTITCRASQGISSDLAWYQQKPGKAPNLLIYAASTLQSGVPSRFSGSGSGTEFTLTISSLQPEDFATYYCQQLNSDLYTFGQGTKLEIK
- IC50 for neutralizing SARS-CoV-2 pseudovirus (Huh-7 cells, luciferase) [1]: < 0.1 µg/mL
- Kd [2]: < 1 nM

B12: ABU-368 (antibody, V domains shown)
VH: EVQLVESGGGLIQPGGSLRLSCAASGFTVSSNYMSWVRQAPGKGLEWVSVIYSGGSTFYADSVKGRFTISRDNSKNTLYLQMNSLRAEDTAVYYCARDLGAYGMDVWGQGTTVTVSS
VL: DIQLTQSPSFLSASVGDRVTITCRASQGISSYLAWYQQKPGKAPKLLIYAASTLQSGVPSRFSGSGSGTEFTLTISSLQPEDFATYYCQQLNSDLYTFGQGTKLEIK
- IC50 for neutralizing SARS-CoV-2 pseudovirus (Huh-7 cells, luciferase) [1]: < 0.5 µg/mL
- Kd [2]: < 20 nM

B13: ABU-369 (antibody, V domains shown)
VH: EVQLVESGGGLIQPGGSLRLSCAASGLTVSSNYMSWVRQAPGKGLEWVSVIYSGGSTFYADSVKGRFTISRDNSKNTLYLQMNSLRAEDTAVYYCARDLYYYGMDVWGQGTTVTVSS
VL: AIQLTQSPSSLSASVGDRVTITCRASQGISSYLAWYQQKPGKAPKLLIFAASTLQSGVPSRFSGSGSGTDFTLTISSLQPEDFATYYCQQLDSYPLFGGGTKVEIK
- IC50 for neutralizing SARS-CoV-2 pseudovirus (Huh-7 cells, luciferase) [1]: < 0.1 µg/mL
- Kd [2]: < 10 nM

B14: ABU-372 (antibody, V domains shown)
VH: EVQLVESGGGLVQPGGSLRLSCAASGVTVSRNYMSWVRQAPGKGLEWVSVIYSGGSTDYADSVKGRFTISRHNSKNTLYLQMNSLRVEDTAVYYCARDGYGMDVWGQGTTVTVSS
VL: DIQLTQSPSFLSASVGDRVTITCRASQGISSYLAWYQQKPGKAPNLLIYAASTLQSGVPSRFSGSGSGTEFTLTISSLQPEDFATYYCQQLNSYPPAFGPGTKVDIK
- IC50 for neutralizing SARS-CoV-2 pseudovirus (Huh-7 cells, luciferase) [1]: < 0.5 µg/mL
- Kd [2]: < 20 nM

B15: ABU-373 (antibody, V domains shown)
VH: EVQLVESGGGLIQPGGSLRLSCAASGITVSSNYMSWVRQAPGKGLEWVSVIYSGGSTYYADSVKGRFTISRDNSKNTLYLQMNSLRAEDTAVYYCARGGAYYYGMDVWGQGTTVTVSS
VL: DIQLTQSPSFLSASVGDRVTITCRASQGISSYLAWYQQKPGKAPKLLIYAASTLQSGVPSRFSGSGSGTEFTLTISSLQPEDFATYYCQQLNTYPPFGFGPGTKVDIK
- IC50 for neutralizing SARS-CoV-2 pseudovirus (Huh-7 cells, luciferase) [1]: < 0.5 µg/mL
- Kd [2]: < 10 nM

B16: ABU-375 (antibody, V domains shown)
VH: EVQLVESGGGLVQPGGSLRLSCAASGLTVSSNYMSWVRQAPGKGLEWVSVIYSGGSTFYADSVKGRFTISRDNSKNTLYLQMNSVRAEDTAVYYCARLPYGMDVWGQGTTVTVSS
VL: DIQMTQSPSSLSASVGDRVTITCQASQDVSKYLNWYQQKPGKAPKLLIHDASNLQTGVPSRFSGGGSGTDFTFTISSLQPEDIATYYCQQYDNLPVTFGGGTKVEIK
- IC50 for neutralizing SARS-CoV-2 pseudovirus (Huh-7 cells, luciferase) [1]: < 0.1 µg/mL
- Kd [2]: < 10 nM

B17: ABU-376 (antibody, V domains shown)
VH: EVQLVESGGGLVQPGGSLRLSCAASGLTVSSNYMSWVRQAPGKGLNWVSVIYSGGSTYYADSVKGRFTISRDNSKNTLYLEMNSLKPEDTAVYYCARLPYGMDVWGQGTTVTVSS
VL: DIQMTQSPSSLSASVGDRVTITCQASQDIRNYLNWYQQKPGKAPKLLIHDASNLETGVPSRFIGSGSGTDFTFTISSLQPEDIATYYCQQYDNLPITFGQGTRLEIK
- IC50 for neutralizing SARS-CoV-2 pseudovirus (Huh-7 cells, luciferase) [1]: < 0.1 µg/mL
- Kd [2]: < 10 nM

B18: ABU-377 (antibody, V domains shown)
VH: QVQLVESGGGLVQPGGSLRLSCAASGLIVSSNYMSWVRQAPGEGLEWVSVIYSGGSTYYADSVKGRFTISRDTSKNTLYLQMNSLRAEDTAVYYCARARIYTYGPDYWGQGTLVTVSS
VL: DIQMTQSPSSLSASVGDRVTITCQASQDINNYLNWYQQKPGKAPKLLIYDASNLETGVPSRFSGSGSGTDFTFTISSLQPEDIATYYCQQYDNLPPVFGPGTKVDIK
- IC50 for neutralizing SARS-CoV-2 pseudovirus (Huh-7 cells, luciferase) [1]: < 0.5 µg/mL
- Kd [2]: < 10 nM

B19: ABU-379 (antibody, V domains shown)
VH: EVQLVESGGGLVQPGGSLRLSCAASGFIVSSNYMSWVRQAPGKGLEWVSVIYSGGSTYYADSVKGRFTISRDNSKNTLYLRMNSLRAEDTAVYYCARAPYCSSRSCETWGQGTLVTVSS
VL: DIQMTQSPSSLSASVGDRVTITCQASQDIRNYLNWYQQKPGKAPNLLIYDASNLETGVPSRFSGSGSGTDFTFTINSLQPEDIATYYCQQYDNLPITFGQGTRLEIK
- IC50 for neutralizing SARS-CoV-2 pseudovirus (Huh-7 cells, luciferase) [1]: < 0.5 µg/mL
- Kd [2]: < 10 nM

B20: ABU-380 (antibody, V domains shown)
VH: EVQLVESGGGLVQPGGSLRLSCAASGFTVSSNYMSWVRQAPGKGLEWVSLIYPGGSTYYADSVEGRFTISRDNSKNTLYLQMNSLRAEDTAVYYCAREIRVITPVEVWGQGTLVTVSS
VL: DIQMTQSPSSLSASVGDRVTITCQASQDINKYLNWYQLKPGKAPNLLIYDASNLETGVPSRFSGSGSGTDFTFTISSLQPEDIATYYCHQYDNLPRTFGQGTKVEIK
- IC50 for neutralizing SARS-CoV-2 pseudovirus (Huh-7 cells, luciferase) [1]: < 0.1 µg/mL
- Kd [2]: < 1 nM

B21: ABU-381 (antibody, V domains shown)
VH: EVQLVESGGGLVQPGGSLRLSCAVSGFIVSRNYMTWVRQAPGKGLEWVSLIYSGGSTFYTNSVKGRFTISRDNSKNTLYLQMDSLRAEDTAVYYCARGPYPRFDYWGQGTLVTVSS
VL: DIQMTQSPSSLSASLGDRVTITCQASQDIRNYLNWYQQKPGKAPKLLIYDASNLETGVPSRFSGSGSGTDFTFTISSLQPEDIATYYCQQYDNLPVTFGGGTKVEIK
- IC50 for neutralizing SARS-CoV-2 pseudovirus (Huh-7 cells, luciferase) [1]: < 0.1 µg/mL
- Kd [2]: < 1 nM
